Assay results taken from US20140120095A1 (Boehringer Ingelheim, published 2014).
Read-outs that look alike come from different tables or passages of the source.

T1: recombinant human VEGF121 (human, UniProt P15692-9 27-147)
T1 construct: also called rhVEGF121
T1 sequence (looked up): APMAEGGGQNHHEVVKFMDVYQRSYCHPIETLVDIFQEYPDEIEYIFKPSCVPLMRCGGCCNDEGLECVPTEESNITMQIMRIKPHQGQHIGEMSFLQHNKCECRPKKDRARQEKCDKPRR

T2: recombinant mouse VEGF164 (mouse, UniProt Q00731-2 27-190, biotinylated as the labelled ligand of the mVEGF164/mVEGFR2 AlphaScreen)
T2 construct: also called mVEGF164; rmVEGF164
T2 sequence (looked up): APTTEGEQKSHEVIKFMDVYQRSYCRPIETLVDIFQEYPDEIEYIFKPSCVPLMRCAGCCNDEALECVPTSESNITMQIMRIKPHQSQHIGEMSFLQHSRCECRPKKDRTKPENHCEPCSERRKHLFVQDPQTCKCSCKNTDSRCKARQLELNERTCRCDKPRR


Assays:
[1] = molecular target: T3, recombinant human VEGF165 (human, UniProt P15692-4 27-191, biotinylated in the competition assays); experiment: SPR Biacore, VEGF165
T3 construct: Bought protein; also called hVEGF165; rhVEGF165

[2] = molecular target: T4, VEGF (used to stimulate HUVEC cells) (UniProt P15692-4 27-191, limits assumed); experiment: cell-based or functional assay
[3] = molecular target: T3, recombinant human VEGF165; experiment: AlphaScreen, hVEGF165/hVEGFR2-Fc competition
[4] = molecular target: T5, human DLL4, full length, overexpressed on cells (human, UniProt Q9NR61 27-685); experiment: FMAT, hNotch1-Fc on CHO-hDLL4, -HSA
T5 construct: CHO cells in FMAT, HEK293 cells in the reporter assay; also called hDLL4; CHO-hDLL4

[5] = molecular target: T5, human DLL4, full length, overexpressed …; experiment: FMAT, hNotch1-Fc on CHO-hDLL4, +25 uM HSA
[6] = molecular target: T3, recombinant human VEGF165; experiment: AlphaScreen, hVEGF165/hVEGFR1-Fc competition, -HSA
[7] = molecular target: T3, recombinant human VEGF165; experiment: AlphaScreen, hVEGF165/hVEGFR2-Fc competition, -HSA
[8] = molecular target: T3, recombinant human VEGF165; experiment: AlphaScreen, hVEGF165/hVEGFR2-Fc competition, +5 uM HSA
Experimental: These 2 competition assays are also performed after preincubation of the VHHs with 5 μM human serum albumin.

[9] = molecular target: T4, VEGF (used to stimulate HUVEC cells); experiment: cell-based or functional assay; remark: listed apart in the source
Target sequence in this assay (P15692 other isoform, or with tags, fused parts or gaps limits assumed): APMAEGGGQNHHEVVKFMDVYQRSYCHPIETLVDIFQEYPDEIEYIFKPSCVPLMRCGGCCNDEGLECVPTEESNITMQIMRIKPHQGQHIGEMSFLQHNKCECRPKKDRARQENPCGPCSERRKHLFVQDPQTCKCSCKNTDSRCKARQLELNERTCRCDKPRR

[10] = molecular target: T4, VEGF (used to stimulate HUVEC cells); experiment: cell-based or functional assay; remark: listed apart in the source
Target sequence in this assay (P15692 other isoform, or with tags, fused parts or gaps limits assumed): as above

[11] = molecular target: T3, recombinant human VEGF165; experiment: binding ELISA, coated rhVEGF165
Target sequence in this assay (P15692 other isoform, or with tags, fused parts or gaps): as the sequence (P15692 other isoform, or with tags, fused parts or gaps limits assumed) above

[12] = molecular target: T1, recombinant human VEGF121; experiment: binding ELISA, coated rhVEGF121
Experimental: Binding to recombinant human VEGF121 is assessed via a solid phase binding ELISA. […] Wells are blocked with a casein solution (1% in PBS).

[13] = molecular target: T3, recombinant human VEGF165; experiment: ELISA, hVEGF165/hVEGFR2-Fc competition; set-up: % inhibition: concentration or dose not given beside the values
[14] = molecular target: T3, recombinant human VEGF165; experiment: ELISA, hVEGF165/hVEGFR1-Fc competition; set-up: % inhibition: concentration or dose not given beside the values
Target sequence in this assay (P15692 other isoform, or with tags, fused parts or gaps): as the sequence (P15692 other isoform, or with tags, fused parts or gaps limits assumed) above

[15] = molecular target: T3, recombinant human VEGF165; experiment: AlphaScreen, hVEGF165/hVEGFR2-Fc competition; set-up: % inhibition: concentration or dose not given beside the values
Experimental: (§1) Finally, streptavidin donor beads (20 μg/ml) are added and after 1 hour of incubation in the dark, fluorescence is measured on the Envision microplate reader.

[16] = molecular target: T3, recombinant human VEGF165; experiment: AlphaScreen, hVEGF165/hVEGFR1-Fc competition; set-up: % inhibition: concentration or dose not given beside the values
Experimental: as §1
Target sequence in this assay (P15692 other isoform, or with tags, fused parts or gaps): as the sequence (P15692 other isoform, or with tags, fused parts or gaps limits assumed) above

[17] = molecular target: T3, recombinant human VEGF165; experiment: SPR Biacore, immobilised hVEGF165, two state reaction model
Experimental: Samples are injected for 2 min and allowed to dissociate up to 20 min at a flow rate of 45 μl/min. In between sample injections, the chip surface is regenerated with 100 mM HCl. HBS-EP+(Hepes buffer pH7.4+EDTA) is used as running buffer. Binding curves are fitted using a Two State Reaction model by Biacore T100 Evaluation Software v2.0.1.
^{(a)}KD = kd1/kₐ₁ * (kd2/(kd2 + kₐ₂)) ^{(b)}Curves are fitted using a Two State Reaction model by Biacore T100 Evaluation Software v2.0.1
Target sequence in this assay (P15692 other isoform, or with tags, fused parts or gaps): as the sequence (P15692 other isoform, or with tags, fused parts or gaps limits assumed) above

[18] = molecular target: T2, recombinant mouse VEGF164; experiment: binding ELISA on coated recombinant mouse VEGF164 (Example 12.6), OD 450 nm
Experimental: Cross-reactivity to mouse VEGF164 is determined using a binding ELISA. […] Wells are blocked with a casein solution (1% in PBS). […] A mouse VEGF164 reactive mAb is included as positive control.

[19] = molecular target: T3, recombinant human VEGF165; experiment: AlphaScreen, hVEGF165/hVEGFR1-Fc competition
Experimental: as §1
Target sequence in this assay (P15692 other isoform, or with tags, fused parts or gaps): as the sequence (P15692 other isoform, or with tags, fused parts or gaps limits assumed) above

[20] = molecular target: T3, recombinant human VEGF165; experiment: AlphaScreen, hVEGF165/hVEGFR2-Fc competition; remark: listed apart in the source
Experimental: as §1
Target sequence in this assay (P15692 other isoform, or with tags, fused parts or gaps): as the sequence (P15692 other isoform, or with tags, fused parts or gaps limits assumed) above

| Binder | IC50 [4] [nM] | IC50 [5] [nM] | % inhibition, VEGF HUVEC Erk phosphorylation assay [10] [%] | IC50, VEGF HUVEC Erk phosphorylation assay [10] [nM] | EC50 [11] [nM] | EC50 [12] [nM] | % inhibition [13] [%] | IC50 [13] [nM] | % inhibition [15] [%] | IC50 [15] [nM] | % inhibition [16] [%] | IC50 [16] [nM] | Kd [17] [nM] | ka1 [17] [M⁻¹ s⁻¹] | ka2 [17] [s⁻¹] | kd1 [17] [s⁻¹] | kd2 [17] [s⁻¹] | binding result [18] | further results |
| --- | --- | --- | --- | --- | --- | --- | --- | --- | --- | --- | --- | --- | --- | --- | --- | --- | --- | --- | --- |
| VEGFBII037 (VHH, also called VEGFBII0037) VHH: DVQLVESGGGLVQPGGSLRLSCAASGRTFSSYSMGWFRQAPGKEREFVVAISKGGYKYDAVSLEGRFTISRDNAKNTVYLQMNSLRPEDTAVYYCASSRAYGSSRLRLADTYEYWGQGTLVTVSS |  |  |  |  |  |  |  |  |  |  |  |  |  |  |  |  |  |  | Kd [1]: 0.27 nM; % inhibition, VEGF HUVEC proliferation assay [2]: 78%; IC50, VEGF HUVEC proliferation assay [2]: 1.54 nM; % inhibition [3]: 100%; IC50 [3]: 0.3 nM |
| VEGFDLLBII002 (bispecific antibody, PEGylated at the Cys at position 15 of the 35 Gly-Ser linker, VEGFBII23B04 - 35GS(Cys15) - DLLBII101G08) EVQLVESGGGLVQTGDSLRLSCEVSGRTFSSYSMGWFRQAQGKEREFVVAISKGGYKYDSVSLEGRFTISKDNAKNTVYLQINSLKPEDTAVYYCASSRAYGSSRLRLADTYEYWGQGTQVTVSSGGGGSGGGGSGGGGCGGGGSGGGGSGGGGSGGGGSEVQLVESGGGLVQAGGSLRLSCAASGRTFSSYAMAWFRQAPGKEREFVAAIRWSGGTAYYADSVQGRFTISRDNAKNTVYLQMNSLKPEDTAVYYCANRAADTRLGPYEYDYWGQGTQVTVSS | 106 | 120 |  |  |  |  |  |  |  |  |  |  |  |  |  |  |  |  | % inh [6]: 64%; IC50 [6]: 0.36 nM; % inh [7]: 100%; IC50 [7]: 0.2 nM; % inh [8]: 100%; IC50 [8]: 0.24 nM |
| VEGFBII010 (VHH, not shown: small tags and cut ends, Homodimeric bivalent anti-VEGF VHH; also called VEGFBII23B04-35GS-23B04) EVQLVESGGGLVQTGDSLRLSCEVSGRTFSSYSMGWFRQAQGKEREFVVAISKGGYKYDSVSLEGRFTISKDNAKNTVYLQINSLKPEDTAVYYCASSRAYGSSRLRLADTYEYWGQGTQVTVSSGGGGSGGGGSGGGGSGGGGSGGGGSGGGGSGGGGSEVQLVESGGGLVQTGDSLRLSCEVSGRTFSSYSMGWFRQAQGKEREFVVAISKGGYKYDSVSLEGRFTISKDNAKNTVYLQINSLKPEDTAVYYCASSRAYGSSRLRLADTYEYWGQGTQVTVSS |  |  | 92 | 0.19 | 0.428 | 0.92 | 100 | 0.049 | 100 | 0.016 | 70 | 0.021 | 0.16 | 450000 | 0.029 | 0.017 | 0.00013 | binds | % inhibition, VEGF HUVEC proliferation assay [9]: 95%; IC50, VEGF HUVEC proliferation assay [9]: 0.22 nM; % inhibition [14]: 67%; IC50 [14]: 0.0735 nM |
| VEGFBII024 (VHH, not shown: small tags and cut ends, Bivalent anti-VEGF VHH; also called VEGFBII23B04-40GS-86H09) EVQLVESGGGLVQTGDSLRLSCEVSGRTFSSYSMGWFRQAQGKEREFVVAISKGGYKYDSVSLEGRFTISKDNAKNTVYLQINSLKPEDTAVYYCASSRAYGSSRLRLADTYEYWGQGTQVTVSSGGGGSGGGGSGGGGSGGGGSGGGGSGGGGSGGGGSGGGGSEVQLVESGGGLVQAGGSLRLSCTASGSAFKSYRMGWFRRTPGKEDEFVASISWTYGSTFYADSVKGRFTMSRDKAKNAGYLQMNSLKPEDTALYYCAAGAQSDRYNIRSYDYWGQGTQVTVSS |  |  | 94 | 0.23 | 0.32 | 0.325 | 100 | 0.292 | 100 | 0.05 | 98 | 0.069 | 0.47 | 300000 | 0.026 | 0.013 | 0.00028 | binds | % inhibition, VEGF HUVEC proliferation assay [9]: 96%; IC50, VEGF HUVEC proliferation assay [9]: 0.38 nM; % inhibition [14]: 92%; IC50 [14]: 0.326 nM; % inhibition [19]: 100%; IC50 [19]: 0.046 nM; IC50 [20]: 0.012 nM |
| VEGFBII025 (VHH, not shown: small tags and cut ends, Bivalent anti-VEGF VHH; also called VEGFBII10E07-40GS-23B04) EVQLVESGGGLVQAGGSLRLSCAASGRTFSNYAMGWFRQAPGKERVLVADISSSGINTYVADAVKGRFTISRDNAKNTVYLQMNSLKPEDTAVYYCAASAWWYSQMARDNYRYWGQGTQVTVSSGGGGSGGGGSGGGGSGGGGSGGGGSGGGGSGGGGSGGGGSEVQLVESGGGLVQTGDSLRLSCEVSGRTFSSYSMGWFRQAQGKEREFVVAISKGGYKYDSVSLEGRFTISKDNAKNTVYLQINSLKPEDTAVYYCASSRAYGSSRLRLADTYEYWGQGTQVTVSS |  |  | 99 | 0.23 | 0.668 | 0.475 | 100 | 0.577 | 100 | 0.051 | 82 | 0.071 | 1.1 | 330000 | 0.018 | 0.017 | 0.00037 | binds | % inhibition [19]: 82%; IC50 [19]: 0.039 nM; IC50 [20]: 0.051 nM |
| DLLBII101G08 (VHH, not shown: small tags and cut ends, Anti-DLL4 VHH; also called 101G8) VHH: EVQLVESGGGLVQAGGSLRLSCAASGRTFSSYAMAWFRQAPGKEREFVAAIRWSGGTAYYADSVQGRFTISRDNAKNTVYLQMNSLKPEDTAVYYCANRAADTRLGPYEYDYWGQGTQVTVSS | 31 | 30.1 |  |  |  |  |  |  |  |  |  |  |  |  |  |  |  |  |  |
| VEGFDLLBII001 (bispecific antibody, PEGylated at the Cys at position 15 of the 35 Gly-Ser linker, DLLBII101G08 - 35GS(Cys15) - VEGFBII23B04) EVQLVESGGGLVQAGGSLRLSCAASGRTFSSYAMAWFRQAPGKEREFVAAIRWSGGTAYYADSVQGRFTISRDNAKNTVYLQMNSLKPEDTAVYYCANRAADTRLGPYEYDYWGQGTQVTVSSGGGGSGGGGSGGGGCGGGGSGGGGSGGGGSGGGGSEVQLVESGGGLVQTGDSLRLSCEVSGRTFSSYSMGWFRQAQGKEREFVVAISKGGYKYDSVSLEGRFTISKDNAKNTVYLQINSLKPEDTAVYYCASSRAYGSSRLRLADTYEYWGQGTQVTVSS | 128 | 122 |  |  |  |  |  |  |  |  |  |  |  |  |  |  |  |  | % inh [6]: 69%; IC50 [6]: 1.58 nM; % inh [7]: 100%; IC50 [7]: 0.64 nM; % inh [8]: 100%; IC50 [8]: 0.64 nM |
